Assay results reported in patent US20060024786A1, “WASP and N-WASP constructs and methods of expressing such constructs” (Cytokinetics, Inc., priority 2004, published 2006).
“Also recorded” adds a separate entry of the source.

Experiments:
full length human N-WASP = target: T1, full length human N-WASP (Homo sapiens, UniProt O00401); test: Pyrene-actin polymerization assay: activation of full length N-WASP by upstream regulators; format: biochemical; details: for activation of FL N-WASP: Arp2/3 complex 4.0 nM, actin 3.5 μM; for Barbed ends: total concentration of Arp2/3 complex in the assay 4.2 nM
T1 construct: ProtA (part of TAP tag, behind the tev site) (C, cleaved yes); made in house; host or cells: human 293 cells; cDNA amplified from HeLa total RNA
T1 sequence (O00401 with tags, fused parts or gaps Y76H/A201G/F223S/S242L/D248E/S252L/N296S/A333E): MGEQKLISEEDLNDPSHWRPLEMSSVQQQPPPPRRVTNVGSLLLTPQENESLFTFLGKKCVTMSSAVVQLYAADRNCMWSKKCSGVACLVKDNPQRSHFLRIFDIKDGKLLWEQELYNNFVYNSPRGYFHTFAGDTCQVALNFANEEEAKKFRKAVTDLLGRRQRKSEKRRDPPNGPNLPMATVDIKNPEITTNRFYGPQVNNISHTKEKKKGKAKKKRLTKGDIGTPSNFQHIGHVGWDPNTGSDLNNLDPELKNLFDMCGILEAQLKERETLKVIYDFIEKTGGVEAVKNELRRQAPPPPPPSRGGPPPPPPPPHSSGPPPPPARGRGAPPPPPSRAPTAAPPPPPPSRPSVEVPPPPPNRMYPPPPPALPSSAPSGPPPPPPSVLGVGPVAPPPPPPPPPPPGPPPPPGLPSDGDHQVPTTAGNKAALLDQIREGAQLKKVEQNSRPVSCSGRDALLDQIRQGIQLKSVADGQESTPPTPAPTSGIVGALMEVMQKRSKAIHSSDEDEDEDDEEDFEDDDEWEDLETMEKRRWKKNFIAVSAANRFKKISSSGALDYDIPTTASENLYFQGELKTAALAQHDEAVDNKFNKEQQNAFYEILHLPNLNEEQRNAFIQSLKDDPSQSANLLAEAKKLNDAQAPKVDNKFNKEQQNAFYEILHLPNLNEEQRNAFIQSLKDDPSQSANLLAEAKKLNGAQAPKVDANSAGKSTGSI
Procedure: (§1) Samples containing candidate agents (individually or as mixtures) are placed into wells on a multi-well plate. Mix 1 is added to each of the wells and mixed with the candidate agent. A sample of Mix 2 is then introduced into each well and the resulting mixture thoroughly mixed. Typically, Mix 1 and Mix 2 are mixed in 1:1 ratio (e.g., 50 μl each of Mix 1 and Mix 2).
(§2) Actin polymerization is measured as a function of time by exciting pyrene at 365 nm and by detecting an increase in fluorescence emission at 407 nm. The change in fluorescence over time is utilized to determine a fluorescence parameter (e.g., maximal velocity, time to half maximal fluorescence intensity or area under the curve of a plot of fluorescence versus time).
Full length N-WASP was prepared as described in Example 2. This protein was then used as a substitute GST-105 WASP in methods that were otherwise identical to the methods described in Example 7.
(§3) Full length human WASP and N-WASP were TAP-tagged (Rigaut, et al. (1999) Nat. Biotechnology 17:1030, which is incorporated herein by reference in its entirety for all purposes) at the C-terminus (see, also Examples 1 and 2). The recombinant WASP and N-WASP were expressed in human 293 cells and then purified using a TAP-tag protocol as described in Example 5.
Arp2/3 and actin concentrations were as described for the third experiment.
Another set of experiments similar to the fifth set were conducted using FL N-WASP.

full length human WASP [1] = target: T2, full length human WASP (Homo sapiens, UniProt P42768); test: Pyrene-actin polymerization assay: activation of full length WASP by upstream regulators; format: biochemical; details: for activation of FL WASP: Arp2/3 complex 4.0 nM, actin 3.5 μM
T2 construct: ProtA (part of TAP tag, behind the tev site) (C, cleaved yes); made in house; host or cells: human 293 cells (Freestyle 293 expression system)
T2 sequence (P42768 whole entry, added parts left off): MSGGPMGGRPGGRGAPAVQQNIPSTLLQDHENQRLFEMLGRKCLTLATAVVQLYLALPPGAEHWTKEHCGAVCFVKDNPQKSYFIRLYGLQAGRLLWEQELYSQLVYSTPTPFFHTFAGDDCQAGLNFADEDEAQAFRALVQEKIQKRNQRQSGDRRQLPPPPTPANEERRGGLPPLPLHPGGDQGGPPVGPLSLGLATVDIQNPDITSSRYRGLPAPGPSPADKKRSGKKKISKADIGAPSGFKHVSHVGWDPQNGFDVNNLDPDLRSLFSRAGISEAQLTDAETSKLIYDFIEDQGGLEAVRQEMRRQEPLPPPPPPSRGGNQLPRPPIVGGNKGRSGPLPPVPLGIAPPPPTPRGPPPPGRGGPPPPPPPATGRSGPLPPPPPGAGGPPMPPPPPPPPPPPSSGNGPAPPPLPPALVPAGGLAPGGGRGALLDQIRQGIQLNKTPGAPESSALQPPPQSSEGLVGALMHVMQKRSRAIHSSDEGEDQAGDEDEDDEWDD
Procedure: as §1, §2
Full length WASP was prepared as described in Example 1. This protein was then used as a substitute GST-105WASP in methods that were otherwise identical to the methods described in Example 7.
as §3
The Arp2/3 complex in these experiments was 4.0 nM and the actin concentration 3.5 μM.
The effect of PIP2on the ability of upstream regulators to regulate FL WASP was evaluated in a fifth set of experiments. The results are depicted in graphical format in FIG. 9.

full length human WASP [2] = target: T2, full length human WASP; test: as above; format: biochemical; details: total concentration of Arp2/3 complex in the assay 4.2 nM
Arp2/3 complex = target: T3, Arp2/3 complex; test: Arp2/3-mediated actin polymerization stimulated by WASP/N-WASP proteins; format: biochemical, human
T3 construct: prepared from an Arp2/3 source such as human platelets; from tissue; host or cells: cell extract, e.g. human platelets
Procedure: as §1, §2
In a second set of experiments, the ability of various truncated forms of WASP were compared to the activity of the full-length protein. The polymerization assays were conducted in the presence of 500 nM Cdc42, 2.5 nm purified Arp2/3 complex and 3.5 μM actin. FL-WASP, 105 WASP and the VCA (see Example 7) domain were tested. The results of these trials were plotted to obtain EC50 values. The results are provided in FIG. 6 and in the chart below.

[3] = Solubility of purified full-length protein; format: physicochemical; details: expressed in 293 cells, TAP-tag purification
[4] = 500 nM Cdc42, 2.5 nm Arp2/3 complex, 3.5 μM actin, from EC50 values

## RhoA: GTPase; GST-tagged RhoA GTP, SEQ ID NO:30
Full length human N-WASP; FIG. 8
  activation of FL N-WASP: could not activate
Full length human WASP [1]; FIG. 7
  activation of FL WASP: could not activate

## phosphatidylinositol-4,5-bisphosphate [PIP2, reference compound]
Full length human WASP [1]; in the absence of small GTPases or Nck, FIG. 9
  effect of PIP2 on FL WASP: minimal, if any, effect

## RhoC: GTPase; GST-tagged RhoC GTP with G14 mutated to V, SEQ ID NO:28
Full length human N-WASP; FIG. 8
  activation of FL N-WASP: could not activate
Full length human WASP [1]; FIG. 7
  activation of FL WASP: could not activate

## Nck2: upstream regulator; GST-tagged NCK2, SEQ ID NO:40
Full length human N-WASP; FIG. 8
  activation of FL N-WASP: only activators tested that can stimulate production of maximal concentration of barbed ends
Full length human N-WASP; FL N-WASP, FIG. 8
  dose dependence of barbed end concentration / effect at higher concentrations: bell shaped dose dependence; also recorded: inhibited
Full length human N-WASP; N-WASP, after subtracting baseline (without activators)
  Barbed ends % of max.: 78%
Full length human N-WASP; N-WASP
  Barbed ends: 3.5 nM
Full length human N-WASP; Rac1 versus Cdc42 in the absence of PIP2 vesicles, Nck2 on N-WASP versus WASP, FIG. 8
  comparison as N-WASP activator: significantly better activator of N-WASP than WASP
Full length human WASP [2]
  Barbed ends: 2.6 nM
Full length human WASP [1]; FL WASP, FIG. 7
  dose dependence of barbed end concentration / effect at higher concentrations: bell shaped dependence; also recorded: inhibited
Full length human WASP [1]; WASP, after subtracting baseline (WASP without activators)
  Barbed ends % of max.: 50%

## FL-WASP: full-length Wiskott-Aldrich syndrome protein, SEQ ID NO:2; expressed TAP-tagged in human 293 cells
Arp2/3 complex; [4]
  activity relative to 105 WASP: approximately 20 times
  potency relative to the VCA/WA domain: more than 70 times
Arp2/3 complex; without upstream regulators, FIG. 5
  stimulation of actin polymerization by the protein by itself: only weakly stimulate actin polymerization
[3]
  solubility of purified protein: completely soluble

## Cdc42: Rho-family GTPase, upstream regulator; GST-tagged Cdc42 GTP with G12 mutated to V, SEQ ID NO:26
Full length human N-WASP; N-WASP plus activator versus N-WASP alone, FIG. 5
  acceleration of actin polymerization by activator: 13 fold
Full length human N-WASP; N-WASP
  Barbed ends: 1.3 nM
Full length human WASP [2]
  Barbed ends: 3.8 nM
Full length human WASP [1]; FIG. 7
  activation of FL WASP: can fully activate FL WASP; also recorded: more effective on WASP-stimulated actin nucleation by Arp2/3 complex than on N-WASP-stimulated actin nucleation
Full length human WASP [1]; FL-WASP plus activator versus FL-WASP alone, FIG. 5
  acceleration of actin polymerization by activator: 13 fold
